Drawing on US20100021474A1 (Genentech, published 2010), this text covers Ki for one molecule.

Test [1] concerns the target T1, soluble form of HEPSIN comprising the entire extracellular domain (human HEPSIN Arg45-Leu417, His-tagged) (human, UniProt P05981 45-417).
T1 construct: range 45-417; Under reducing SDS-PAGE it runs as a 20 kDa A-chain and a 30 kDa B-chain; also called soluble HEPSIN; recombinant soluble HEPSIN; not shown: His tag
In words: Ki app, enzyme inhibition assay with chromogenic substrate S2366, fit to the tight binding inhibition equation. How it is done: (§1) A soluble form of the bi-Kunitz inhibitor HAI-2 was used as a stop reagent for the pro-uPA activation assay. […] HAI-2 was incubated with 0.5 nM HEPSIN or 10 nM uPA for 30 min in Hepes buffer (20 mM Hepes, pH 7.5, 150 mM NaCl, 5 mM CaCl₂, 0.01% Triton X-100) at room temperature. The chromogenic substrates S2366 (for HEPSIN) or S2444 (for uPA) were added at a concentration corresponding to their respective Kₘ values, which were determined in separate experiments. After substrate addition, the increase in absorbance at 405 nm was measured on a kinetic microplate reader (Molecular Devices, Sunnyvale, Calif.). The Kᵢ^app values were determined by fitting the data to the equation for tight binding inhibition (22,23).

Test [2] addresses T2, uPA (high molecular weight form) (UniProt P00749 21-431, limits assumed).
T2 construct: Bought reagent
In words: Ki app, enzyme inhibition assay with chromogenic substrate S2444, fit to the tight binding inhibition equation. How it is done:
as §1

T1 sequence (P05981 45-417 limits assumed): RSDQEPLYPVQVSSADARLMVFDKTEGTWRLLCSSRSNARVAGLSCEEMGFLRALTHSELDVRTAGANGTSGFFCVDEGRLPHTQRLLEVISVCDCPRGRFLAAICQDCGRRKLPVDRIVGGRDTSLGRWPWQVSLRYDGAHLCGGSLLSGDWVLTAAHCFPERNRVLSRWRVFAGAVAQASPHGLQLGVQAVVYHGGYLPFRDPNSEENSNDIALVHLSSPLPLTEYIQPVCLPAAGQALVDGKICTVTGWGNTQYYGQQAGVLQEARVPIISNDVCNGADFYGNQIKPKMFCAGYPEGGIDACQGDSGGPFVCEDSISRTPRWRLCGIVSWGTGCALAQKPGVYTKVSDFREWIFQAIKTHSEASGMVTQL

B1: soluble form of hepatocyte growth factor activator inhibitor-2 (HAI-2) (other, UniProt O43291 28-197, looked up)
chain: ADRERSIHDFCLVSKVVGRCRASMPRWWYNVTDGSCQLFVYGGCDGNSNNYLTKEECLKKCATVTENATGDLATSRNAADSSVPSAPRRQDSEDHSSDMFNYEEYCTANAVTGPCRASFPRWYFDVERNSCNNFIYGGCRGNKNSYRSEEACMLRCFRQQENPPLPLGSK
notes: Called a soluble form
B1: the Ki in test [1] is 0.26 nM; in test [2] it was greater than 1000 nM.
